T1: ERRα1 (estrogen-related receptor alpha 1, NR3B1) (Homo sapiens, UniProt P11474 P11474:1-423)
T1 sequence: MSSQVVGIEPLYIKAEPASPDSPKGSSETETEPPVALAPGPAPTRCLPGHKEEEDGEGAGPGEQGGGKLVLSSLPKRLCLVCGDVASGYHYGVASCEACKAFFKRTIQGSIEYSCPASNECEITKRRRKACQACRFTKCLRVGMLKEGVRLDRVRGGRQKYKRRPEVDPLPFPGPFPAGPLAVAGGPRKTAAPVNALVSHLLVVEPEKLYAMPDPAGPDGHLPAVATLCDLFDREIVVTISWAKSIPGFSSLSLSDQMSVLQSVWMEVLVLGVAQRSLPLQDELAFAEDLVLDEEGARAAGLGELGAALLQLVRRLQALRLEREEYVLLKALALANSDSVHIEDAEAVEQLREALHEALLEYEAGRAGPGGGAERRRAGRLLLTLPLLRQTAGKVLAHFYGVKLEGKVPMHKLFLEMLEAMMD

B1: Consensus palindromic ERE (dsDNA)
DNA 1: TAAGCTTAGGTCACAGTGACCTAAGCTTA
DNA 2: TAAGCTTAGGTCACTGTGACCTAAGCTTA
B2: cyclin D1 site (dsDNA)
DNA 1: GCGAGGAAAGCGTGAAGGTGATTTCAGTTAATT
DNA 2: AATTAACTGAAATCACCTTCACGCTTTCCTCGC
B3: Prolactin site 1 (dsDNA)
DNA 1: TGTCCATTTTCTTCTAGGTCAACCCCAATGGTA
DNA 2: TACCATTGGGGTTGACCTAGAAGAAAATGGACA
B4: pS2 site 2 (dsDNA)
DNA 1: GTAGGACCTGGATTAAGGTCAGGTTGGAGGAGA
DNA 2: TCTCCTCCAACCTGACCTTAATCCAGGTCCTAC
B5: EGF site (dsDNA)
DNA 1: CAAATAATGGGCTGAAGGTGAACTATCTTTACT
DNA 2: AGTAAAGATAGTTCACCTTCAGCCCATTATTTG
B6: Prolactin site 2 (dsDNA)
DNA 1: CAAATTTGAAACTAAAGGTCACAGGCTGCTTTA
DNA 2: TAAAGCAGCCTGTGACCTTTAGTTTCAAATTTG
B7: ErbB2 ERRE (dsDNA)
DNA 1: AAAGGAACTTTCCCAAGGTCACAGAGCTGAGCT
DNA 2: AGCTCAGCTCTGTGACCTTGGGAAAGTTCCTTT
B8: Cathepsin D site (dsDNA)
DNA 1: TGGCATATTGGGTGAAGGTCAAGGGAGTGGCTT
DNA 2: AAGCCACTCCCTTGACCTTCACCCAATATGCCA
B9: PgR site 3 (dsDNA)
DNA 1: TCCTAAGGACTGTCAAGGTCATCAAATACAAGG
DNA 2: CCTTGTATTTGATGACCTTGACAGTCCTTAGGA
B10: elk1 site (dsDNA)
DNA 1: CTCCCATCTCACTTAAGGTCAAAGCCAGGGTCC
DNA 2: GGACCCTGGCTTTGACCTTAAGTGAGATGGGAG
B11: BRCA1 site (dsDNA)
DNA 1: GTAATTGCTGTACGAAGGTCAGAATCGCTACCT
DNA 2: AGGTAGCGATTCTGACCTTCGTACAGCAATTAC
B12: PgR site 2 (dsDNA)
DNA 1: TCCTTGCTAAACCCAAGGTCATAAATCTTTTCT
DNA 2: AGAAAAGATTTATGACCTTGGGTTTAGCAAGGA
B13: IGF1R site (dsDNA)
DNA 1: GCTCCGGCTCGCTGAAGGTCACAGCCGAGGCGA
DNA 2: TCGCCTCGGCTGTGACCTTCAGCGAGCCGGAGC
B14: IGF2 site 2 (dsDNA)
DNA 1: CTGTCGGCAGGAACAAGGTCACCCCTTGGCGTT
DNA 2: AACGCCAAGGGGTGACCTTGTTCCTGCCGACAG
B15: IGF2 site 3 (dsDNA)
DNA 1: GGTGGACGCTGCTGAAGGTGAGCGAGACCCCGG
DNA 2: CCGGGGTCTCGCTCACCTTCAGCAGCGTCCACC
B16: pS2 site 1 (dsDNA)
DNA 1: TCCCTTCCCCCTGCAAGGTCACGGTGGCCACCC
DNA 2: GGGTGGCCACCGTGACCTTGCAGGGGGAAGGGA
B17: aromatase site (dsDNA)
DNA 1: CCTGAGACTCTACCAAGGTCAGAAATGCTGCAA
DNA 2: TTGCAGCATTTCTGACCTTGGTAGAGTCTCAGG
B18: ERα promoter site (dsDNA)
DNA 1: ATGTTTGGTATGAAAAGGTCACATTTTATATTC
DNA 2: GAATATAAAATGTGACCTTTTCATACCAAACAT
B19: Prolactin site 3 (dsDNA)
DNA 1: CCTCAGAGTGGCTCAGGGTCAGAGAAGGTAGAG
DNA 2: CTCTACCTTCTCTGACCCTGAGCCACTCTGAGG
B20: ERβ promoter site (dsDNA)
DNA 1: GGTGCTCCCACTTAGAGGTCACGCGCGGCGTCG
DNA 2: CGACGCCGCGCGTGACCTCTAAGTGGGAGCACC
B21: hMDM2 site (dsDNA)
DNA 1: GGGAGTTCAGGGTAAAGGTCACGGGGCCGGGGC
DNA 2: GCCCCGGCCCCGTGACCTTTACCCTGAACTCCC
B22: BRCA2 site (dsDNA)
DNA 1: AGAACATCCCTTTTAAGGTCAGAACAAAGGTAT
DNA 2: ATACCTTTGTTCTGACCTTAAAAGGGATGTTCT
B23: PgR site 1 (dsDNA)
DNA 1: AAAATTGTTTTGTCTAGGTCATTTGCATTTTCA
DNA 2: TGAAAATGCAAATGACCTAGACAAAACAATTTT

biological target: T1, ERRα1 (estrogen-related receptor alpha …); test: cell_activity; HeLa, 3xERE-TK-luc reporter; conditions: tags:
Procedure: Transient Transfections and Luciferase Assays: To assess the role ERRα plays in regulating transcription of an ERE-containing promoter, MCF-7 or HeLa cells grown in 12-well tissue culture plates were co-transfected in parallel with 0.5 μg of pTK-luc versus p3xERE-TK-luc along with the indicated amounts of the empty cloning vector pcDNA3.1, the ERRα1 expression plasmid pcDNA3.1-hERRα1, or mutant variants thereof. […] Cells were harvested 48 h post-transfection, and lysates were assayed for luciferase activity normalized to protein concentration as previously described (36).
To determine whether the transcriptional repression observed here was dependent upon the cell line, we repeated the cotransfection experiments as described above except using ER-negative HeLa cells in place of ER-positive MCF-7 cells (FIG. 19).

Binder	activity [fold activation]
B1	2.5

biological target: T1, ERRα1 (estrogen-related receptor alpha …); test: competition; competition EMSA, COS extract; conditions: tags: COS / COS-M6 whole-cell extract, pcDNA3.1-hERRα1 or pRSV-hERRα1

Binder	binding signal [RBA vs reference ERRE]
B2	0.07
B3	0.06
B4	0.12
B5	0.14
B6	0.33
B7	1.01
B8	0.49
B9	1.45
B10	0.22
B11	0.17
B12	0.91
B13	0.36
B14	0.25
B15	0.06
B16	0.49
B17	0.17
B18	0.11
B19	0.07
B20	0.54
B21	0.35
B22	0.08
B23	0.14

Source: patent publication US20030152959, “Method of using estrogen-related receptor alpha (ERRalpha) status to determine prognosis, treatment strategy and predisposition to breast cancer, and method of using ERRalpha as a therapeutic target for the treatment of breast cancer” (published 2003)
